B1: INTS3 (parent)
chain: FSDDEEDLNSKGKKREFRFHPIKE
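Further: lentivirally expressed fusions sorted by FACS into six bins by GFP to DsRed ratio, PSI derived from sequencing read proportions per bin multiplied by bin number.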

This series covers variants of B1. Kind of series: protein stability index of a GFP-peptide fusion (GPS, HEK-293T) (PSI 1-6); higher = more stable. Particulars: c terminus: a fixed tail appended.
For FSDPEEDLNSKGKKREFRFHPIKE, the protein stability index is 2.53.

Consider FSDCEEDLNSKGKKREFRFHPIKE, for which the protein stability index worked out at 2.4. The same measure for FSDSEEDLNSKGKKREFRFHPIKE: 2.75; for FSDTEEDLNSKGKKREFRFHPIKE: 2.56; for FSDREEDLNSKGKKREFRFHPIKE: 1.85.

Take FSDEEEDLNSKGKKREFRFHPIKE: the protein stability index turned out to be 3.05. The same measure for FSDMEEDLNSKGKKREFRFHPIKE: 2.4; for FSDQEEDLNSKGKKREFRFHPIKE: 2.9; for FSDIEEDLNSKGKKREFRFHPIKE: 2.38. The same measure for FSDFEEDLNSKGKKREFRFHPIKE: 2.19. The same measure for FSDAEEDLNSKGKKREFRFHPIKE: 2.72. For the variant FSDNEEDLNSKGKKREFRFHPIKE, the protein stability index was 2.82.

As for FSDVEEDLNSKGKKREFRFHPIKE, the protein stability index was found to be 2.23. Turning to FSDWEEDLNSKGKKREFRFHPIKE, the protein stability index was 2.4. The value for FSDGEEDLNSKGKKREFRFHPIKE was 2.52. The same measure for FSDKEEDLNSKGKKREFRFHPIKE: 2.02; for FSDYEEDLNSKGKKREFRFHPIKE: 2.51. The value for FSDLEEDLNSKGKKREFRFHPIKE was 2.43; that for FSDDEEDLNSCGKKREFRFHPIKE was 2.99; that for FSDDEEDLNSMGKKREFRFHPIKE was 2.79. With FSDDEEDLNSYGKKREFRFHPIKE, the protein stability index was 3.29. In the case of FSDDEEDLNSGGKKREFRFHPIKE, the protein stability index came out at 3.02.

As to FSDDEEDLNSHGKKREFRFHPIKE, the protein stability index was 3.13.

On to FSDDEEDLNSFGKKREFRFHPIKE, for which the protein stability index worked out at 3.24. The same measure for FSDDEEDLNSPGKKREFRFHPIKE: 3.38; for FSDDEEDLNSRGKKREFRFHPIKE: 3.2. For FSDDEEDLNSNGKKREFRFHPIKE, the protein stability index stood at 3.44. The same measure for FSDDEEDLNSWGKKREFRFHPIKE: 1.9. The same measure for FSDDEEDLNSIGKKREFRFHPIKE: 3.48; for FSDDEEDLNSQGKKREFRFHPIKE: 3.62. The same measure for FSDDEEDLNSSGKKREFRFHPIKE: 3.22; for FSDDEEDLNSAGKKREFRFHPIKE: 3.62. Turning to FSDDEEDLNSTGKKREFRFHPIKE, the protein stability index is 3.35. Consider FSDDEEDLNSVGKKREFRFHPIKE, for which the protein stability index amounted to 2.89.

As for FSDDEEDLNSLGKKREFRFHPIKE, the protein stability index is 2.73. The same measure for FSDDEEDLNSDGKKREFRFHPIKE: 3.56; for FSDDEEDLNSEGKKREFRFHPIKE: 3.38. The same measure for FSDDEEDLNFKGKKREFRFHPIKE: 2.45. The value for FSDDEEDLNVKGKKREFRFHPIKE was 2.75; that for FSDDEEDLNWKGKKREFRFHPIKE was 3.56.

Consider FSDDEEDLNYKGKKREFRFHPIKE, for which the protein stability index came out at 2.59. The same measure for FSDDEEDLNKKGKKREFRFHPIKE: 2.38.

Turning to FSDDEEDLNNKGKKREFRFHPIKE, the protein stability index came to 3.37. Turning to FSDDEEDLNTKGKKREFRFHPIKE, the protein stability index was 2.87. The same measure for FSDDEEDLNRKGKKREFRFHPIKE: 2.41; for FSDDEEDLNHKGKKREFRFHPIKE: 2.64. The value for FSDDEEDLNAKGKKREFRFHPIKE was 2.58; that for FSDDEEDLNPKGKKREFRFHPIKE was 2.63; that for FSDDEEDLNLKGKKREFRFHPIKE was 2.57. The same measure for FSDDEEDLNIKGKKREFRFHPIKE: 2.17; for FSDDEEDLNDKGKKREFRFHPIKE: 3.64; for FSDDEEDLNCKGKKREFRFHPIKE: 3.08.

For the variant FSDDEEDLNMKGKKREFRFHPIKE, the protein stability index turned out to be 3.56. The same measure for FSDDEEDLNEKGKKREFRFHPIKE: 2.99. The value for FSDDEEDLNQKGKKREFRFHPIKE was 3.43; that for FSDDEEDLNGKGKKREFRFHPIKE was 2.9; that for FSDDEEDDNSKGKKREFRFHPIKE was 3.26. For FSDDEEDKNSKGKKREFRFHPIKE, the protein stability index turned out to be 2.78. The value for FSDDEEDNNSKGKKREFRFHPIKE was 2.99. The same measure for FSDDEEDANSKGKKREFRFHPIKE: 3.35; for FSDDEEDWNSKGKKREFRFHPIKE: 2.84; for FSDDEEDSNSKGKKREFRFHPIKE: 3.37. For the variant FSDDEEDMNSKGKKREFRFHPIKE, the protein stability index was 2.78. The same measure for FSDDEEDRNSKGKKREFRFHPIKE: 2.94; for FSDDEEDQNSKGKKREFRFHPIKE: 3.44. On to FSDDEEDGNSKGKKREFRFHPIKE, for which the protein stability index was 3.29.

In the case of FSDDEEDVNSKGKKREFRFHPIKE, the protein stability index came to 2.99.

On to FSDDEEDCNSKGKKREFRFHPIKE, for which the protein stability index was determined as 2.99. The same measure for FSDDEEDFNSKGKKREFRFHPIKE: 2.75; for FSDDEEDINSKGKKREFRFHPIKE: 2.83. The same measure for FSDDEEDENSKGKKREFRFHPIKE: 3.4; for FSDDEEDHNSKGKKREFRFHPIKE: 2.73; for FSDDEEDYNSKGKKREFRFHPIKE: 3. With FSDDEEDPNSKGKKREFRFHPIKE, the protein stability index worked out at 3.4.

For the variant FSDDEEDTNSKGKKREFRFHPIKE, the protein stability index was 3.23. The same measure for FSDDEECLNSKGKKREFRFHPIKE: 1.99; for FSDDEERLNSKGKKREFRFHPIKE: 1.92; for FSDDEEGLNSKGKKREFRFHPIKE: 2.13. The same measure for FSDDEEVLNSKGKKREFRFHPIKE: 2.7. On to FSDDEEKLNSKGKKREFRFHPIKE, for which the protein stability index worked out at 2.04.

Regarding FSDDEETLNSKGKKREFRFHPIKE, the protein stability index was determined as 2.58. The value for FSDDEELLNSKGKKREFRFHPIKE was 2.56; that for FSDDEESLNSKGKKREFRFHPIKE was 2.66. The value for FSDDEENLNSKGKKREFRFHPIKE was 2.29; that for FSDDEEHLNSKGKKREFRFHPIKE was 2.52. Turning to FSDDEEELNSKGKKREFRFHPIKE, the protein stability index turned out to be 3.14. The same measure for FSDDEEALNSKGKKREFRFHPIKE: 2.59; for FSDDEEFLNSKGKKREFRFHPIKE: 2.47. Consider FSDDEEYLNSKGKKREFRFHPIKE, for which the protein stability index was 2.23. On to FSDDEEMLNSKGKKREFRFHPIKE, for which the protein stability index worked out at 2.59. The same measure for FSDDEEILNSKGKKREFRFHPIKE: 2.12. Turning to FSDDEEPLNSKGKKREFRFHPIKE, the protein stability index worked out at 2.18.

As for FSDDEEWLNSKGKKREFRFHPIKE, the protein stability index is 2.23. The value for FSDDEEQLNSKGKKREFRFHPIKE was 2.15.

These data come from the supplement of paper PMC10567573.
